Results: the nanobody polyreactivity screen of Harvey et al. (2022)

Test: yeast display, Sf9 membrane polyspecificity reagent, FACS + sequencing; frameworks hold sequencing errors
Procedure, shortened: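 A synthetic nanobody library was expressed on Saccharomyces cerevisiae BJ5465 by galactose induction for 36–48 hours. The library was stained for 1 hour at 4 °C with 10% biotinylated, detergent-solubilized Sf9 membrane reagent and enriched with streptavidin microbeads before FACS. Low and high (top ~1%) gates were set on anti-HA fluorescence for expression and streptavidin fluorescence for reagent binding, and each polyreactivity label reflects the gate of origin.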

Row | Sequence | polyreactivity (PSR sort gate)
1 | QVQLVESGGRLVQAGGSLRLSCAASGSIFTVYAMGCYRQAPGKERELVAAIRRTGSRTYYADSVKGRFTNSRDNAKNTVYLQMNSLKPEDTAVYYCAADVWFDRRSVRLNYWGQGTQVTVSS | high polyreactivity
2 | QVQLVESGGRLVQAGGSLRLSCAASGSILDGNTMGWYRQAPGKEMELVAAITWDGTSTYYADSVKGRFTISRDNAKNTVYLQMNSLKPEDTAVYYCAATKGYSDQSTGYYAYIHYDYWGQGTQVTVSS | low polyreactivity
3 | QVQLVESGGRLVQAGGSLRLSCAASGSNFETYDMGWYRQAPRKERELVAAITLSGGSTYYADSVKGRFTISRDNAKNTVYLQMNSLKPEDTAVYYCAADDSGVKVWEGDYWGQGTQVTVSS | low polyreactivity
4 | QVQLVESGGRLVQAGGSLRLSCAASGSTFDYNAMGWYRQEPGKESEFVAAITSTGGNTYYADSVKGRFTISRDNAKNTVYLQMNSLKPEDTAVDYCNKDVARYPYGKFDYWGQGTQVTVSS | low polyreactivity
5 | QVQLVESGGRLVQAGGSLRLSCAASGSTFHSYVMGWYRQAPGKERELVAAITSRGGSTNYADSVKGRFTISRDNAKNTVYLKMNSLIPEDTAVYYCAADCYWGWSYFRYDYWGQVTQVTVSS | low polyreactivity
6 | QVQLVESGGRLVQAGGSLRLSCAASGSTFTVIGMGWYRQAPGKERELVASITWSGGSTYYADSVKGRFTISRDNAKNTVYLQMTSLIPEDTAVYYCAADEKLYITGYDYWGQGTQVTVSS | low polyreactivity
7 | QVQLVESGGRLVQAGGSLRLSCAASGSTFYPYAMGWYRQAPGKERELVAAINGNGGRTYYADSVKGRFTISRDNAKNTVYLQMNSLKPEDTAVFYCAVVRVAWGHRSDYWGQGTQVTVSS | high polyreactivity
8 | QVQLVESGGRLVQAGGSLRLSCAASGYTFPYANGWYRQAPGKERELVAGITSSGGSTYYADSVKGRFTISRDNAKNTVYLQMNSVKPEDTAVYYCNADVFVWLYPHYLIFDYWGQGTQVTVSS | low polyreactivity
9 | QVQLVESGGRLVQAGGSLRLSCAATGSTFYKNPMGRYRHAPRKEREVVAAISTSGGSTYYADSLKGRFTISRDNAKNTVYLHMNRLKPEDTAVNYCATRRRIPSSCYYDNDYWGQGTQVTVSS | high polyreactivity
10 | QVQLVESGGRLVQAGGSLRLSCASSGRTFYPNAMGWYRHAPGKESELVAGIRSSGDSTYYADSVKGRFTISRDNAKNTVYLQMNSLKPEDTAVYYCNRDLTPSYDYWGQCTQVTVSS | low polyreactivity
11 | QVQLVESGGRLVQAGGSLRLSSAASGRTFTSYAMGWYRQSPGKERELVAAISRRGGSTYYADSVKGRFTISRDNAKNTVYLQMNSLKPEDTAVYYCNKATRYYLVELNYWGQGTQVTVSS | high polyreactivity
12 | QVQLVESGGRLVQAGGSLRLTCAASGRTFNYYAMGWYRQAPGKERELVAAISRSGGSTYYADSVKGRFTISRDNAKNTVYLQMNSLKPEDTAVYYCNRDRGSIYGWGQGTQVTVSS | high polyreactivity
13 | QVQLVESGGRLVQAGGSLRLTLAASGNTRGSYAMGWYRQAPGKEREFVATISKRGGSTYYADSVKGRFTISRDNAKNTVYLQMNSLKPEDTAVYYCNKDPYSIYRPGSGQGYAFNYWGQGTQVTVSS | high polyreactivity
14 | QVQLVESGGRLVQAGGSLRVSCAASGSIFRIYSMGWYRQAPGKERELVATISSTGSTYYADSVKGRFTISRDNAKNSVYLQLNSQKPEDTAVYYCAALWKVSSRYWRMDYWGQGTQVTVSS | high polyreactivity
15 | QVQLVESGGRLVQAGGSRRLSCAGSGSIFHHNAMGSYRQAPGKESELVAAISSRSGNTYYADSVKGRFTISRDNAKNTVYLQMNSLKPEDPAVYYCAAGIRLSYSTYDSWGQGTQVTVSS | high polyreactivity
16 | QVQLVESGGRLVQARGSLRLSCAASGSIFATYVMGWYRQAPGKERELVATITYSGDSTYYADSVKGRFTISRDNAKNTVYLQMNSVKPEDTAVYYCAADYFTLYPYRGFDYWGQGTQVTVSS | low polyreactivity
17 | QVQLVESGGSLVQAGGSLRLSCAASGFIFQDNAMGWYRQAPGKERELVAAIRSTGSTNYADSVKGRFTISRDNAKNTVYLQMNSLKPEDTAVYYCNAGKYQSDTPSLVPTEYPAFYYWGQGTQVTVSS | low polyreactivity
18 | QVQLVESGGSLVQAGGSLRLSCSASGFIFYTNAMGWYRQAPGKERELVAAISSRGTRTYYADSVKGRFTISRDNAKNSVYLQLNSLKPEDTAVYYCAVRTRYLGLEYYYWGQGSQVTVSS | high polyreactivity
19 | QVQLVESGGSLVQAGGSLRLSSAASGITFSDYAMRWYRPAPGKESELVAGITSGGSTYYADSVKGRFTISRDNAKNTVYLQMNSLKPEDSAVYYCAAVRRWKYDWGQGTQVTVSS | high polyreactivity
20 | QVQLVESGGVLDQAGGSLRLSCAASGRIYFNKAMGWYRPAPGKEWELVAAINAGGRTNYADSVKGRFTISRDNEKNTVFLHMTSLKQEDTSVYYCNADDNPVWEYDYWGQGTQVTVSS | low polyreactivity
21 | QVQLVESGGVLGQAGGSLRLSCAPSGSLIGGYAMGWYRQAPGKQRELVAAISYRGATTYYADSVKGRFTISRDNSKNTVYFQMNSLKPEDTAVYYCDVAARTRARVLYGYDYGGQGTQVTVSS | low polyreactivity
22 | QVQLVESGGVLVHAGGILRLSCAASGSTIVRYAMGWYRQAPGKERELVAAKSSRGGSTYYADSVKGRFTITRDNAKNTVYLQMNILKPEDTGVYYCSAAPPGTIAYRVGSWGQGTQVTVSS | high polyreactivity

Row | Sequence | polyreactivity (PSR sort gate)
23 | QVQLVESGGVLVQAGARLRLSSAASRFTLALNTMGCYIQAPVKERELVAAISWSGGSTFADSVKGRFTISRDNAKNTFYLQMNSLKPEDTAVYYCAAPLHVAGGYSRDFGSWGQGTQVTVSS | low polyreactivity
24 | QVQLVESGGVLVQAGASLRLSCAASVRIFWLNARGCYRQAPGKEREFVASITYGSDSTYYSDSVNGRFTISRDNAKNTVYLQMNSLIPEDTSVYYCNREGWHYGPYEYWGQVTQVTVSS | low polyreactivity
25 | QVQLVESGGVLVQAGGILRLSCAASVRTFYRYAMGWYRQAPGKERELVAAITSGDRTNYADSVKGRFTMSRDNAKNTVYLQMNSLKPEYTADYYCAARRDYWAPYYYWGQGTQVTVSS | high polyreactivity
26 | QVQLVESGGVLVQAGGSLRISCAASGFIFAYNAMGWYRQAPGKETELVAAISWNGGNTYYADSVKGRFTISRDNAKNTVYLQMNSLKPEDTAVYYCAAIPKPFRSYGYWGKGTQVTVSS | high polyreactivity
27 | QVQLVESGGVLVQAGGSLRLSCAASGFIFKKYAMGWYRQEPGKEMELVAAITIGGSTYYADSVKGRFTISRDNAKNTVYLQMNSLKPEDTAVYYCAAVQGKVRGGYYWGQGTQVTVSS | high polyreactivity
28 | QVQLVESGGVLVQAGGSLRLSCAASGFIFSEYAMGWYRHAPGKERELVAAISRSGGRTYYADSVKGRFTISRDNAKNTVYLQMNSLKPEDTAVYYCAAVWWWYYNHYYYWGQGTLVTVSS | high polyreactivity
29 | QVQLVESGGVLVQAGGSLRLSCAASGFINLRYAMGWYRQAPGKERELVAAITSGGNTYYADSVKGRFTISRDNAKNTVSLQRNSLKQEDTAVYYCAAERFVITYPISRYYYWGQGTQVTVSS | low polyreactivity
30 | QVQLVESGGVLVQAGGSLRLSCAASGFTFDYYAMGWYIPAPGKERELVASISYNGGITNYADSVQGRFTISRDNAKNTVFLHMHSLKPEDTAVYYWNAVPLYYWRFDYWGQGTQVTVSS | low polyreactivity
31 | QVQLVESGGVLVQAGGSLRLSCAASGFTFSHNAMGWYRLARGKERELVAAISKGGSSTYYADSVKGRFTISRDNAKNTVYLQMNSLKPEDTAVYYCARPSPHKGYDYWGQGTQVTESS | high polyreactivity
32 | QVQLVESGGVLVQAGGSLRLSCAASGFTFSLYAMGWYRQAPGKERELVASISRSGGSTYYADSVKGRFTISRDNAKNTVYLQMNSLKPEDTAVYSCAARWRPYKYDSWGQGTQVTVSS | high polyreactivity
33 | QVQLVESGGVLVQAGGSLRLSCAASGFTFWSYAMGWYRQAPGKERELVAAISSGDNTYYADSVKGRFTISRDNAKNTVYLQMNSLKPEDTAVYYCNAFYYYEYDYWGQGTQVTVSS | low polyreactivity
34 | QVQLVESGGVLVQAGGSLRLSCAASGIIFFGYAMGWYRQAPGKERELFAAISYSTGGTSTYADSVKGRFTISRDNAKNTVYLQKNSLKPEDTAVYYCAVRRQYRRAYSFSQSRYDYWGQGTQVTVSS | high polyreactivity
35 | QVQLVESGGVLVQAGGSLRLSCAASGIIFRSNVMGWYRQAPGKERELVAAISTGGGRTYYADSVKGRFTISRDNAKNTVYLQMNILKPEDTAVYYCAAETTPYQPDGFDEYYYWGQGTQVTVSS | high polyreactivity
36 | QVQLVESGGVLVQAGGSLRLSCAASGRIFGSYTMGWYRQAPGKERELVAGISRRGGSTYYADSVKGRFTISRDNAKNTVYLQMNSLNPEDTAVYYCAAVSSVFSVRYDYWGQGTQVTVSS | high polyreactivity
37 | QVQLVESGGVLVQAGGSLRLSCAASGRIFPTYAMGWYRQAPGKERELVAAISQRGGSTYYADSVKGRFTISRDNAKNTVYLQMNSLKPEDTAVYYCAASYYRQSGEYDYWGQGTQVTVSS | low polyreactivity
38 | QVQLVESGGVLVQAGGSLRLSCAASGRIFWLNAMGWYRQAPGKEREFVASITYGSDSTYYADSVKGRFTISRDNAKNTVYLQMNSRTPEDTAVYYCNREGWHYGPYGYWGQGTQVTVSS | low polyreactivity
39 | QVQLVESGGVLVQAGGSLRLSCAASGRLFSRYTMGWYRQAPGKERELVAAIRNTGSTNYADSVKGRFTISRDNAKNTVYLQMNSLKPEDTAVYYCNARTAYVAYHYYYPQRMDYWGQGTQVTVSS | high polyreactivity
40 | QVQLVESGGVLVQAGGSLRLSCAASGRSFDENSMGWYRQAPGKERELVAAITGGDSTNYADSVKGRFTISRDNAKNTVYLQMNSLKPEDTAVYYCAKDQERVTKGRFYLLEYYWGQGTQVTVSS | low polyreactivity
41 | QVQLVESGGVLVQAGGSLRLSCAASGRTSKFYAMGWYRPAPGKERELVARITYSGGSTTYADSVKGRFTISRDNAKNTVYLQMNSLKPDDTAVYYFAITSQWLRRYYYWGQGTQVTVSS | high polyreactivity
42 | QVQLVESGGVLVQAGGSLRLSCAASGSAFRENDMGWYRQAPGKERELVAAITFSGGSTYADSVKGRFTISRDIAKNTVYLQMNSLKPEDSAVYYCSADTLPAEYEYDYWGQGTQVTVSS | low polyreactivity
43 | QVQLVESGGVLVQAGGSLRLSCAASGSIFKLNAMGWYRQAPGKERELVAVINKSGGRTFYADSVKGRFTISRDNAKNTVYLQMNRLKPEDTAVYYCNAVSNLAVNLDYWGQGTQVTVSS | high polyreactivity
